Measurements as given in patent US20200207850A1 (MacroGenics, published 2020).

How the values were obtained:
[1] = biological target: T1, B7-H3 on A498 and JIMT-1 target cells (UniProt Q5ZPR3 29-534, limits assumed); assay: cell-based or functional assay
T1 sequence (looked up): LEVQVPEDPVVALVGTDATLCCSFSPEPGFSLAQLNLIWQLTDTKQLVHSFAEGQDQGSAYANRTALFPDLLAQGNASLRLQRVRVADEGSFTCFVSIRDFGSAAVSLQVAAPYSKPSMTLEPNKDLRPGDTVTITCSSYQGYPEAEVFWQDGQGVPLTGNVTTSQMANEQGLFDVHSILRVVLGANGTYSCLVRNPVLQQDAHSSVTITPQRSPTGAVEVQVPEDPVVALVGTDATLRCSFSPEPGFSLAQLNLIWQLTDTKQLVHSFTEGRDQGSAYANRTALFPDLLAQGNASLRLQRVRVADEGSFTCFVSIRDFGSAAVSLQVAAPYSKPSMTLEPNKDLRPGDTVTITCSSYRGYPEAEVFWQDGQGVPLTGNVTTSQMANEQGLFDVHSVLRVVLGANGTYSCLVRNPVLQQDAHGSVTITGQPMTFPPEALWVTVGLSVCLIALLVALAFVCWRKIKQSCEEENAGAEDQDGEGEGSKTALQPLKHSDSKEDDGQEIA

[2] = biological target: T2, CD8 on human T cells (PBMC) (human, UniProt P01732 22-235); assay: flow cytometry on human PBMC, CD5+/CD4- gated cells (bear CD8 and CD3), detection PE anti-human Fc (MFI)
T2 construct: whole, on cells; The CD8+ (CD5+ CD4-) cells also carry CD3; also called CD5+ CD4- gated PBMC; CD8+ T cells
Procedure: 50 μL (4×10⁶ cells/mL) of well-mixed cells in FACS buffer containing 0.01% sodium azide were then added into corresponding wells and mixed thoroughly using a pipette. The plate was incubated in the dark for about 45 minutes at 2-8° C. At the end of the incubation, the cells were washed twice by adding 300 μL of FACS buffer to each well, centrifuging the plate at 1,200 rpm for 5 minutes, and discarding the supernatant. The cell pellets were re-suspended in 100 μL mixture of PE-conjugated goat anti-Human Fcγ 1:500 diluted, CD5-APC and CD4-PerCP5.5 in FACS buffer containing 0.01% sodium azide, and incubated in the dark for about 45 minutes at 2-8° C. At the end of the incubation, the cells were washed, re-suspended with FACS buffer, and analyzed with a BD Caliber flow cytometer. Cells were gated to CD5⁺ CD4⁺ (FIG. 9A) or CD5⁺ CD4⁻ (FIG. 9B).

[3] = biological target: T2, CD8 on human T cells (PBMC); assay: flow cytometry, binding to human CD5+/CD4- cells (bear CD8 and CD3) (MFI)
[4] = biological target: T3, 5T4 on JIMT-1 target cells (UniProt Q13641 32-420, limits assumed); assay: cell-based or functional assay
T3 sequence (looked up): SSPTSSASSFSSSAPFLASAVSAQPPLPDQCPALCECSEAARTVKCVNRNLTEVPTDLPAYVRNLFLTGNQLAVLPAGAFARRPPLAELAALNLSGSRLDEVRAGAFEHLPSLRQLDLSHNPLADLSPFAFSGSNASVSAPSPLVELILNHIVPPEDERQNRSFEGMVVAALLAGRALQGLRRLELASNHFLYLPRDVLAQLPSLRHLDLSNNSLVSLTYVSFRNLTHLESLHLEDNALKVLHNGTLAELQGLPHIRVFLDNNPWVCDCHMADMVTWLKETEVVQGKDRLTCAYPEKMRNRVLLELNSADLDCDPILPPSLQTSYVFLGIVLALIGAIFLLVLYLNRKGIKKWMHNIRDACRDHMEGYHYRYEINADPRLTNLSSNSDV

[5] = biological target: T2, CD8 on human T cells (PBMC); assay: flow cytometry on human PBMC, CD5+/CD4- gated cells (bear CD8 and CD3), detection anti-human Fc (MFI)

T2 sequence (P01732 22-235): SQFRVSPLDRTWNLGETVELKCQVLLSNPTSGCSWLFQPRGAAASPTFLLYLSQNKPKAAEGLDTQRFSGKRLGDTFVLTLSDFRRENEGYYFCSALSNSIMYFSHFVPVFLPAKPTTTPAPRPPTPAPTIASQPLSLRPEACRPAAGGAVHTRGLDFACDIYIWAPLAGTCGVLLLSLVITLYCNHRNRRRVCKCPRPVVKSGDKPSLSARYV

B1: B7-H3 mAb 1/CD3 mAb 2/CD8 mAb 2 Tri-Specific Binding Molecule (other)
chain 1: DIQMTQSPSSLSASVGDRVTITCRASQDISNYLNWYQQKPGKAPKLLIYYTSRLHSGVPSRFSGSGSGTDFTLTISSLQPEDIATYYCQQGNTLPPTFGGGTKLEIKGGGSGGGGEVQLVESGGGLVQPGGSLRLSCAASGFTFSTYAMNWVRQAPGKGLEWVGRIRSKYNNYATYYADSVKDRFTISRDDSKNSLYLQMNSLKTEDTAVYYCVRHGNFGNSYVSWFAYWGQGTLVTVSSGGCGGGEVAALEKEVAALEKEVAALEKEVAALEKGGGDKTHTCPPCPAPEAAGGPSVFLFPPKPKDTLMISRTPEVTCVVVDVSHEDPEVKFNWYVDGVEVHNAKTKPREEQYNSTYRVVSVLTVLHQDWLNGKEYKCKVSNKALPAPIEKTISKAKGQPREPQVYTLPPSREEMTKNQVSLWCLVKGFYPSDIAVEWESNGQPENNYKTTPPVLDSDGSFFLYSKLTVDKSRWQQGNVFSCSVMHEALHNHYTQKSLSLSPGK
chain 2: QAVVTQEPSLTVSPGGTVTLTCRSSTGAVTTSNYANWVQQKPGQAPRGLIGGTNKRAPWTPARFSGSLLGGKAALTITGAQAEDEADYYCALWYSNLWVFGGGTKLTVLGGGGSGGGGQVQLVQSGAEVKKPGASVKVSCKASGYTFTSYWMQWVRQAPGQGLEWMGTIYPGDGDTRYTQKFKGRVTITADKSTSTAYMELSSLRSEDTAVYYCARRGIPRLWYFDVWGQGTTVTVSSGGCGGGKVAALKEKVAALKEKVAALKEKVAALKE
heavy: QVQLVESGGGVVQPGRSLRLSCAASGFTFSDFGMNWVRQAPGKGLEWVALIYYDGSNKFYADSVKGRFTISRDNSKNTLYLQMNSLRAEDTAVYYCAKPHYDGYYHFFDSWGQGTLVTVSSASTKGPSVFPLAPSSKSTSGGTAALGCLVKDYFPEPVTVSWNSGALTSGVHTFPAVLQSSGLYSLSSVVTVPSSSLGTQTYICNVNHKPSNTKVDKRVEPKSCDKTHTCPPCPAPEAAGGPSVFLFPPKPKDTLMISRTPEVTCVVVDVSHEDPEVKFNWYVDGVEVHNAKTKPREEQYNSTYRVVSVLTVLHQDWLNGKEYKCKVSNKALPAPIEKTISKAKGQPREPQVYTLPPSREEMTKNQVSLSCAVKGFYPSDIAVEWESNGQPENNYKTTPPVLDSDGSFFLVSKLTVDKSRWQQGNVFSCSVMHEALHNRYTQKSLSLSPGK
light: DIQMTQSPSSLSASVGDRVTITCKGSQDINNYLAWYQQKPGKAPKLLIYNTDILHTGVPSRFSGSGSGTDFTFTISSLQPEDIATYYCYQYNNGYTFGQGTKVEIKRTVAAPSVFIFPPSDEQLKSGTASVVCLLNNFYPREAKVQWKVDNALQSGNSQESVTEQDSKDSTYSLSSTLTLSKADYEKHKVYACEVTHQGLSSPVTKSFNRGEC
notes: Site A B7-H3, Site B CD3, Site C CD8 (TRX2)
- EC50 (nM) of killing, CD4+ effector cells, JIMT1-luc target cells, E:T 5:1 [1]: 0.314 nM
- EC50 (nM) of killing, CD8+ effector cells, JIMT1-luc target cells, E:T 5:1 [1]: 0.0051 nM
- EC50 (nM) of killing, PanT effector cells, JIMT1-luc target cells, E:T 5:1 [1]: 0.0058 nM
- EC50 (read off the curve) [2]: ~1000 pM

B2: CD3 mAb 2/CD8 mAb 1/B7-H3 mAb 1 Tri-Specific Binding Molecule (other)
chain 1: DVQINQSPSFLAASPGETITINCRTSRSISQYLAWYQEKPGKTNKLLIYSGSTLQSGIPSRFSGSGSGTDFTLTISGLEPEDFAMYYCQQHNENPLTFGAGTKLELRGGGSGGGGEVQLVESGGGLVQPGGSLRLSCAASGFTFSTYAMNWVRQAPGKGLEWVGRIRSKYNNYATYYADSVKGRFTISRDDSKNSLYLQMNSLKTEDTAVYYCVRHGNFGNSYVSWFAYWGQGTLVTVSSGGCGGGEVAALEKEVAALEKEVAALEKEVAALEKGGGDKTHTCPPCPAPEAAGGPSVFLFPPKPKDTLMISRTPEVTCVVVDVSHEDPEVKFNWYVDGVEVHNAKTKPREEQYNSTYRVVSVLTVLHQDWLNGKEYKCKVSNKALPAPIEKTISKAKGQPREPQVYTLPPSREEMTKNQVSLWCLVKGFYPSDIAVEWESNGQPENNYKTTPPVLDSDGSFFLYSKLTVDKSRWQQGNVFSCSVMHEALHNHYTQKSLSLSPGK
chain 2: QAVVTQEPSLTVSPGGTVTLTCRSSTGAVTTSNYANWVQQKPGQAPRGLIGGTNKRAPWTPARFSGSLLGGKAALTITGAQAEDEADYYCALWYSNLWVFGGGTKLTVLGGGGSGGGGEVQLQQSGAELVKPGASVKLSCTASGFNIKDTYIHFVRQRPEQGLEWIGRIDPANDNTLYASKFQGKATITADTSSNTAYMHLCSLTSGDTAVYYCGRGYGYYVFDHWGQGTTLTVSSGGCGGGKVAALKEKVAALKEKVAALKEKVAALKE
heavy: QVQLVQSGAEVKKPGASVKVSCKASGYTFTSYWMQWVRQAPGQGLEWMGTIYPGDGDTRYTQKFKGRVTITADKSTSTAYMELSSLRSEDTAVYYCARRGIPRLWYFDVWGQGTTVTVSSASTKGPSVFPLAPSSKSTSGGTAALGCLVKDYFPEPVTVSWNSGALTSGVHTFPAVLQSSGLYSLSSVVTVPSSSLGTQTYICNVNHKPSNTKVDKRVEPKSCDKTHTCPPCPAPEAAGGPSVFLFPPKPKDTLMISRTPEVTCVVVDVSHEDPEVKFNWYVDGVEVHNAKTKPREEQYNSTYRVVSVLTVLHQDWLNGKEYKCKVSNKALPAPIEKTISKAKGQPREPQVYTLPPSREEMTKNQVSLSCAVKGFYPSDIAVEWESNGQPENNYKTTPPVLDSDGSFFLVSKLTVDKSRWQQGNVFSCSVMHEALHNRYTQKSLSLSPGK
light: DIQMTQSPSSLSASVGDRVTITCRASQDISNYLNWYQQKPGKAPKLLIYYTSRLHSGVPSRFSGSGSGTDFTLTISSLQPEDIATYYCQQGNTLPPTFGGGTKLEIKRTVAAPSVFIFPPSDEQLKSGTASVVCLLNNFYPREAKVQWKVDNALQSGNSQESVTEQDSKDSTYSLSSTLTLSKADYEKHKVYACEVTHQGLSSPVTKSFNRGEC
notes: Site A CD3, Site B CD8, Site C B7-H3
- EC50 (nM) of killing, CD4+ effector cells, JIMT1-luc target cells, E:T 5:1 [1]: 0.105 nM
- EC50 (nM) of killing, CD8+ effector cells, JIMT1-luc target cells, E:T 5:1 [1]: 0.0053 nM
- EC50 (nM) of killing, PanT effector cells, JIMT1-luc target cells, E:T 5:1 [1]: 0.0113 nM
- EC50 (read off the curve) [3]: ~2000 pM

B3: 5T4 mAb 2/CD3 mAb 2/CD8 mAb 1 Tri-Specific Binding Molecule (other)
chain 1: DVLMTQTPLSLPVSLGDQASISCRSSQSIVYSNGNTYLEWYLQKPGQSPKLLIYKVSNRFSGVPDRFSGSGSGTDFTLKISRVEAEDLGVYYCFQGSHVPFTFGSGTKLEIKGGGSGGGGEVQLVESGGGLVQPGGSLRLSCAASGFTFSTYAMNWVRQAPGKGLEWVGRIRSKYNNYATYYADSVKGRFTISRDDSKNSLYLQMNSLKTEDTAVYYCVRHGNFGNSYVSWFAYWGQGTLVTVSSGGCGGGEVAALEKEVAALEKEVAALEKEVAALEKGGGDKTHTCPPCPAPEAAGGPSVFLFPPKPKDTLMISRTPEVTCVVVDVSHEDPEVKFNWYVDGVEVHNAKTKPREEQYNSTYRVVSVLTVLHQDWLNGKEYKCKVSNKALPAPIEKTISKAKGQPREPQVYTLPPSREEMTKNQVSLWCLVKGFYPSDIAVEWESNGQPENNYKTTPPVLDSDGSFFLYSKLTVDKSRWQQGNVFSCSVMHEALHNHYTQKSLSLSPGK
chain 2: QAVVTQEPSLTVSPGGTVTLTCRSSTGAVTTSNYANWVQQKPGQAPRGLIGGTNKRAPWTPARFSGSLLGGKAALTITGAQAEDEADYYCALWYSNLWVFGGGTKLTVLGGGGSGGGGQVQLQQPGAELVKPGASVKMSCKASGYTFTSYWITWVKQRPGQGLEWIGDIYPGSGRANYNEKFKSKATLTVDTSSSTAYMQLSSLTSEDSAVYNCARYGPLFTTVVDPNSYAMDYWGQGTSVTVSSGGCGGGKVAALKEKVAALKEKVAALKEKVAALKE
heavy: EVQLQQSGAELVKPGASVKLSCTASGFNIKDTYIHFVRQRPEQGLEWIGRIDPANDNTLYASKFQGKATITADTSSNTAYMHLCSLTSGDTAVYYCGRGYGYYVFDHWGQGTTLTVSSASTKGPSVFPLAPSSKSTSGGTAALGCLVKDYFPEPVTVSWNSGALTSGVHTFPAVLQSSGLYSLSSVVTVPSSSLGTQTYICNVNHKPSNTKVDKRVEPKSCDKTHTCPPCPAPEAAGGPSVFLFPPKPKDTLMISRTPEVTCVVVDVSHEDPEVKFNWYVDGVEVHNAKTKPREEQYNSTYRVVSVLTVLHQDWLNGKEYKCKVSNKALPAPIEKTISKAKGQPREPQVYTLPPSREEMTKNQVSLSCAVKGFYPSDIAVEWESNGQPENNYKTTPPVLDSDGSFFLVSKLTVDKSRWQQGNVFSCSVMHEALHNRYTQKSLSLSPGK
light: DVQINQSPSFLAASPGETITINCRTSRSISQYLAWYQEKPGKTNKLLIYSGSTLQSGIPSRFSGSGSGTDFTLTISGLEPEDFAMYYCQQHNENPLTFGAGTKLELRRTVAAPSVFIFPPSDEQLKSGTASVVCLLNNFYPREAKVQWKVDNALQSGNSQESVTEQDSKDSTYSLSSTLTLSKADYEKHKVYACEVTHQGLSSPVTKSFNRGEC
- EC50 (nM) of killing, CD4+ effector cells, JIMT1-luc target cells, E:T 5:1 [4]: 0.0435 nM
- EC50 (nM) of killing, CD8+ effector cells, JIMT1-luc target cells, E:T 5:1 [4]: 0.0013 nM
- EC50 (nM) of killing, PanT effector cells, JIMT1-luc target cells, E:T 5:1 [4]: 0.002 nM
- EC50 (read off the curve) [5]: ~2000 pM
